1 molecule from patent EP2769989A1 can be followed below.

In the test the target is AC133-positive and CD3-positive cells (target of the printed Kd not stated). The test is described as follows: flow cytometry on cells, MFI against antibody concentration, detected with anti-c-Myc mAb and PE anti-mouse F(ab')2; target cell line for this Kd not stated. Background: Flow cytometry measures light scatter and fluorescence of single cells or particles in a stream.

B1: AC133xCD3-diabody (bispecific single-chain antibody, VHAC133-G4S Linker-VLCD3-(G4S)3 Linker-VHCD3-G4S Linker-VLAC133) (bispecific antibody)
chain: QVQLQQSGAELVRPGASVKLSCKASGYTFSDFEMHWVKQTPVHGLEWIGDIDPGTGDTAYNLKFKGKATLTTDKSSSTAYMELRSLTSEDSAVYYCTLGAFVYWGQGTLVTVSGGGGSDIQMTQSPSSLSASVGDRVTITCRASQDIRNYLNWYQQKPGKAPKLLIYYTSRLESGVPSRFSGSGSGTDYTLTISSLQPEDFATYYCQQGNTLPWTFGQGTKVEIKGGGGSGGGGSGGGGSEVQLVESGGGLVQPGGSLRLSCAASGYSFTGYTMNWVRQAPGKGLEWVALINPYKGVSTYNQKFKDRFTISVDKSKNTAYLQMNSLRAEDTAVYYCARSGYYGDSDWYFDVWGQGTLVTVSSGGGGSDVVVTQTPLSLPVSFGDQVSISCRSSQSLANSYGNTYLSWYLHKPGQSPQLLIYGISNRFSGVPDRFSGSGSGTDFTLKISTIKPEDLGMYYCLQGTHQPYTFGGGTKLEIKRADAAA
Turning to B1, the Kd – broadly, the equilibrium constant for the complex coming apart – turned out to be 6.4 nM.
